In publication PMC7494424 (Nature methods, 2019):

Target: the molecule itself
Assay: cryo-EM structure

Protein | stoichiometry N
P. falciparum glutamine synthetase (enzyme, UniProt C0H551 1-543, looked up) MKSVSFSNNAELYEYIKDKKNDVEIVACIITNLLGTYFKCFFYVKEITLNKLESGFSFDASSIKLCSDTEVSDFFIKVDHSTCYLEECDGKNILNIMCDIKRYNGFDYYKCPRTILKKTCEFVKNEGIADKVCIGNELEFFIFDKVNYSLDEYNTYLKVYDRESFSCKNDLSSIYGNHVVNKVEPHKDHFNNPNNEYLINDDSKKVKKKSGYFTTDPYDTSNIIKLRICRALNDMNINVQRYHHEVSTSQHEISLKYFDALTNADFLLITKQIIKTTVSSFNRTATFMPKPLVNDNGNGLHCNISLWKNNKNIFYHNDPSTFFLSKESFYFMYGIVKHAKALQAFCNATMNSYKRLVPGFETCQKLFYSFGSRSAVIRLSLINYSNPSEKRIEFRLPDCANSPHLVMAAIILAGYDGIKSKEQPLVPFESKDNHFYISSIFSKYVQHPENFNILTHALEGYESLHTINESPEFKNFFKCEEPQGISFSLVESLDALEKDHAFLTVNNIFTEEMIQEYIKFKREEIDAYNKYVNAYDYHLYYEC | 12
P. falciparum M18 aspartyl aminopeptidase (enzyme, UniProt Q8I2J3 1-570, looked up) MDKKAREYAQDALKFIQRSGSNFLACKNLKERLENNGFINLSEGETWNLNKNEGYVLCKENRNICGFFVGKNFNIDTGSILISIGHIDSCALKISPNNNVIKKKIHQINVECYGSGLWHTWFDRSLGLSGQVLYKKGNKLVEKLIQINKSVLFLPSLAIHLQNRTRYDFSVKINYENHIKPIISTTLFNQLNKCKRNNVHHDTILTTDTKFSHKENSQNKRDDQMCHSFNDKDVSNHNLDKNTIEHLTNQQNEEKNKHTKDNPNSKDIVEHINTDNSYPLLYLLSKELNCKEEDILDFELCLMDTQEPCFTGVYEEFIEGARFDNLLGSFCVFEGFIELVNSIKNHTSNENTNHTNNITNDINDNIHNNLYISIGYDHEEIGSLSEVGARSYCTKNFIDRIISSVFKKEIHEKNLSVQEIYGNLVNRSFILNVDMAHCSHPNYPETVQDNHQLFFHEGIAIKYNTNKNYVTSPLHASLIKRTFELYYNKYKQQIKYQNFMVKNDTPCGSTVGSMVAANLSMPGIDIGIPQLAMHSIREIAAVHDVFFLIKGVFAFYTYYNQVLSTCVHDK | 12
